Laboratory results as given in patent US20120294802A1 (ALDERBIO, published 2012).

T1: human Calcitonin Gene Related Peptide alpha (Homo sapiens, C-terminal amide (-NH2 printed after the last residue F; the filing words it as 'the N-terminal phenylalanine is amidated'); 125I radiolabeled in the receptor binding assay of Example 6)
T1 construct: 37-residue peptide bought from American Peptides and Bachem; Coated directly on plates in the ELISA of the recombinant antibodies; also called CGRPα; CGRP-alpha
T1 peptide: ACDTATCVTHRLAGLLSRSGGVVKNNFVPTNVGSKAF


Target: T1, human Calcitonin Gene Related Peptide …
Assay: ELISA, plates coated with CGRPα, anti-human IgG Fc-HRP detection
Procedure: To characterize recombinant expressed antibodies for their ability to bind to human-CGRPα, antibody-containing solutions were tested by ELISA. All incubations were done at room temperature. Briefly, Immulon IV plagtes (Thermo Scientific), were coated with a CGRPα containing solution (1 ut/mL in PBS) for 2 hours. CGRPα-coated plates were then washed three times in wash buffer (PBS, 0.05% Tween-20). The plates were then blocked using a blocking solution (PBS, 0.5% fish skin gelatin, 0.05% Tween-20) for approximately one hour. The blocking solution was then removed and the plates were then incubated with a dilution series of the antibody being tested for approximately one hour. At the end of this incubation, the plate was washed three times with wash buffer and further incubated with a secondary antibody containing solution (Peroxidase conjugated affinipure F(ab′)2 fragment goat anti-human IgG, Fc fragment specific (Jackson Immunoresearch) for approximately 45 minutes and washed three times. At that point a substrate solution (TMB peroxidase substrate, BioFx) and incubated for 3 to 5 minutes in the dark. The reaction was stopped by addition of a HCl containing solution (0.5M) and the plate was read at 450 nm in a plate-reader.

| binding result | Binder |
| --- | --- |
| binds | Antibody Ab2 (antibody, human IgG1, kappa, N297A, Humanized anti-CGRP antibody, full length) heavy: not shown light: QVLTQSPSSLSASVGDRVTINCQASQSVYDNNYLAWYQQKPGKVPKQLIYSTSTLASGVPSRFSGSGSGTDFTLTISSLQPEDVATYYCLGSYDCSSGDCFVFGGGTKVEIKRTVAAPSVFIFPPSDEQLKSGTASVVCLLNNFYPREAKVQWKVDNALQSGNSQESVTEQDSKDSTYSLSSTLTLSKADYEKHKVYACEVTHQGLSSPVTKSFNRGEC |
| binds | Antibody Ab14 (antibody, human IgG1, kappa, N297A, Humanized anti-CGRP antibody, full length) heavy: not shown light: QVLTQSPSSLSASVGDRVTINCQASQNVYNNNYLAWYQQKPGKVPKQLIYSTSTLASGVPSRFSGSGSGTDFTLTISSLQPEDVATYYCLGSYDCSRGDCFVFGGGTKVEIKRTVAAPSVFIFPPSDEQLKSGTASVVCLLNNFYPREAKVQWKVDNALQSGNSQESVTEQDSKDSTYSLSSTLTLSKADYEKHKVYACEVTHQGLSSPVTKSFNRGEC |
| binds | Antibody Ab6 (antibody, human IgG1, kappa, N297A, Humanized anti-CGRP antibody, full length) heavy: not shown light: QVLTQSPSSLSASVGDRVTINCQASQSVYHNTYLAWYQQKPGKVPKQLIYDASTLASGVPSRFSGSGSGTDFTLTISSLQPEDVATYYCLGSYDCTNGDCFVFGGGTKVEIKRTVAAPSVFIFPPSDEQLKSGTASVVCLLNNFYPREAKVQWKVDNALQSGNSQESVTEQDSKDSTYSLSSTLTLSKADYEKHKVYACEVTHQGLSSPVTKSFNRGEC |
| binds | Antibody Ab12 (antibody, human IgG1, kappa, N297A, V domains shown, Humanized anti-CGRP antibody, full length) VH: EVQLVESGGGLVQPGGSLRLSCAVSGIDVTNYYMQWVRQAPGKGLEWVGVIGVNGKRYYASWAKGRFTISRDNSKTTVYLQMNSLRAEDTAVYFCARGDIWGQGTLVTVSS VL: QVLTQSPSSLSASVGDRVTINCRASQSVYYNNYLAWYQQKPGKVPKQLIYSTSTLASGVPSRFSGSGSGTDFTLTISSLQPEDVATYYCLGSYDCSNGDCFVFGGGTKVEIKR |
| binds | Antibody Ab3 (antibody, human IgG1, kappa, N297A) heavy: not shown light: QVLTQSPSSLSASVGDRVTINCQASQSVYDNNYLAWYQQKPGKVPKQLIYSTSTLASGVPSRFSGSGSGTDFTLTISSLQPEDVATYYCLGSYDCSSGDCFVFGGGTKVEIKRTVAAPSVFIFPPSDEQLKSGTASVVCLLNNFYPREAKVQWKVDNALQSGNSQESVTEQDSKDSTYSLSSTLTLSKADYEKHKVYACEVTHQGLSSPVTKSFNRGEC |
| binds | Antibody Ab5 (antibody, human IgG1, kappa, N297A) heavy: not shown light: QVLTQSPSSLSASVGDRVTINCQASQSVYHNTYLAWYQQKPGKVPKQLIYDASTLASGVPSRFSGSGSGTDFTLTISSLQPEDVATYYCLGSYDCTNGDCFVFGGGTKVEIKRTVAAPSVFIFPPSDEQLKSGTASVVCLLNNFYPREAKVQWKVDNALQSGNSQESVTEQDSKDSTYSLSSTLTLSKADYEKHKVYACEVTHQGLSSPVTKSFNRGEC |
| binds | Antibody Ab8 (antibody, human IgG1, kappa, N297A, V domains shown, Humanized anti-CGRP antibody, full length) VH: EVQLVESGGGLVQPGGSLRLSCAVSGIDLSNHYMQWVRQAPGKGLEWVGVVGINGRTYYASWAKGRFTISRDNSKTTVYLQMNSLRAEDTAVYFCARGDIWGQGTLVTVSS VL: QVLTQSPSSLSASVGDRVTINCQASQSVYNYNYLAWYQQKPGKVPKQLIYSTSTLASGVPSRFSGSGSGTDFTLTISSLQPEDVATYYCLGSYDCSTGDCFVFGGGTKVEIKR |
| binds | Antibody Ab10 (antibody, human IgG1, kappa, N297A, Humanized anti-CGRP antibody, full length) heavy: not shown light: QVLTQSPSSLSASVGDRVTINCQASQNVYNNNYLAWYQQKPGKVPKQLIYSTSTLASGVPSRFSGSGSGTDFTLTISSLQPEDVATYYCLGSYDCSRGDCFVFGGGTKVEIKRTVAAPSVFIFPPSDEQLKSGTASVVCLLNNFYPREAKVQWKVDNALQSGNSQESVTEQDSKDSTYSLSSTLTLSKADYEKHKVYACEVTHQGLSSPVTKSFNRGEC |
| binds | Antibody Ab1 (antibody, human IgG1, kappa, N297A, V domains shown, Chimeric anti-CGRP antibody (rabbit variable regions, human gamma-1 and kappa constant regions), full length) VH: QSLEESGGRLVTPGTPLTLTCTVSGLDLSSYYMQWVRQAPGKGLEWIGVIGINDNTYYASWAKGRFTISRASSTTVDLKMTSLTTEDTATYFCARGDIWGPGTLVTVSS VL: QVLTQTASPVSAAVGSTVTINCQASQSVYDNNYLAWYQQKPGQPPKQLIYSTSTLASGVSSRFKGSGSGTQFTLTISDLECADAATYYCLGSYDCSSGDCFVFGGGTEVVVKR |
| binds | Antibody Ab11 (antibody, human IgG1, kappa, N297A, V domains shown, Chimeric anti-CGRP antibody, full length) VH: QSLEESGGRLVTPGGSLTLTCTVSGIDVTNYYMQWVRQAPGKGLEWIGVIGVNGKRYYASWAKGRFTISKTSSTTVDLKMTSLTTEDTATYFCARGDIWGPGTLVTVSS VL: QVLTQTASPVSPAVGSTVTINCRASQSVYYNNYLAWYQQKPGQPPKQLIYSTSTLASGVSSRFKGSGSGTQFTLTISDVQCDDAATYYCLGSYDCSNGDCFVFGGGTEVVVKR |
| binds | Antibody Ab9 (antibody, human IgG1, kappa, N297A, V domains shown, Chimeric anti-CGRP antibody, full length) VH: QSLEESGGRLVTPGTPLTLTCTVSGIGLSSYYMQWVRQSPGRGLEWIGVIGSDGKTYYATWAKGRFTISKTSSTTVDLRMASLTTEDTATYFCTRGDIWGPGTLVTVSS VL: QVLTQTPSPVSAAVGSTVTINCQASQNVYNNNYLAWYQQKPGQPPKQLIYSTSTLASGVSSRFRGSGSGTQFTLTISDVQCDDAATYYCLGSYDCSRGDCFVFGGGTEVVVKR |
| binds | Antibody Ab7 (antibody, human IgG1, kappa, N297A, V domains shown, Chimeric anti-CGRP antibody, full length) VH: QEQLKESGGRLVTPGTSLTLTCTVSGIDLSNHYMQWVRQAPGKGLEWIGVVGINGRTYYASWAKGRFTISRTSSTTVDLKMTRLTTEDTATYFCARGDIWGPGTLVTVSS VL: QVLTQTASPVSAAVGSTVTINCQASQSVYNYNYLAWYQQKPGQPPKQLIYSTSTLASGVSSRFKGSGSGTQFTLTISDVQCDDAATYYCLGSYDCSTGDCFVFGGGTEVVVKR |
| binds | Antibody Ab4 (antibody, human IgG1, kappa, N297A, V domains shown) VH: QSLEESGGRLVTPGTPLTLTCSVSGIDLSGYYMNWVRQAPGKGLEWIGVIGINGATYYASWAKGRFTISKTSSTTVDLKMTSLTTEDTATYFCARGDIWGPGTLVTVSS VL: QVLTQTPSPVSAAVGSTVTINCQASQSVYHNTYLAWYQQKPGQPPKQLIYDASTLASGVPSRFSGSGSGTQFTLTISGVQCNDAAAYYCLGSYDCTNGDCFVFGGGTEVVVKR |
